Measurements from patent US20170088617A1 (Boehringer Ingelheim, published 2017).

Legend:
[1] = molecular target: T1, human CD33 on the AML-derived HL60 cell line (human, UniProt P20138 18-364); assay: FACS Scatchard analysis on HL60 cells
T1 construct: whole, on cells; also called CD33 expressing HL60 cell line
Method: (§1) Fourteen CD33 binding agents (fully human monoclonal antibodies as listed in table 1 as No. 1-14, respectively) to human and cynomolgus CD33 were determined by FACS Scatchard analysis as described in Brockhoff et al., (Cytometry. 1994 Sep. 1; 17(1):75-83) on CD33 expressing cells (AML-derived HL60 cell line, recombinant HEK293-cynomolgusCD33 cell line). Briefly, dilutions of a CD33 binding agent were prepared in a 96 well plate starting with 100-400 nM in the first well (80 pil), followed by 11 dilution steps (1:2, 40+40 μl). 50 μl of CD33 binding agent dilutions are added to FACS tubes, 150 μl cells (0.8×10⁶/ml=1.2×10⁵ cells/tube) are added to each FACS tube. Cells were gently mixed and incubated for 1 h on ice. Thereafter 50 μl FITC conjugated secondary antibody (concentration 15 μg/ml; mouse mAb anti-human IgG) was added, mixed, and incubated for 30 min. on ice. 4 ml PBS ph7.2 containing 0.02% […] were added thereafter, cells were pelleted and resuspended in 300 μl PBS pH 7.2 and subjected to FACS analysis using a BD FACS Canto. All experimental steps were performed on wet ice, all CD33 binding agent dilutions were made in PBS/0.5% BSA+0.02% acid. FACS calibration was performed using Quantum FITC MESF (Premix) Beads (Bangs Laboratories). All samples were measured using the same FACS parameters. […] A regression line was drawn through the resulting data points, the slope of this line corresponds to the negative value of the association constant.

[2] = molecular target: T2, cynomolgus CD33 on the recombinant HEK293-cynomolgusCD33 cell line (cynomolgus, UniProt A0A7N9ICR5 17-359); assay: FACS Scatchard analysis on HEK293-cynomolgusCD33 cells
T2 construct: whole, on cells
Method: as §1

T1 sequence (P20138 18-364): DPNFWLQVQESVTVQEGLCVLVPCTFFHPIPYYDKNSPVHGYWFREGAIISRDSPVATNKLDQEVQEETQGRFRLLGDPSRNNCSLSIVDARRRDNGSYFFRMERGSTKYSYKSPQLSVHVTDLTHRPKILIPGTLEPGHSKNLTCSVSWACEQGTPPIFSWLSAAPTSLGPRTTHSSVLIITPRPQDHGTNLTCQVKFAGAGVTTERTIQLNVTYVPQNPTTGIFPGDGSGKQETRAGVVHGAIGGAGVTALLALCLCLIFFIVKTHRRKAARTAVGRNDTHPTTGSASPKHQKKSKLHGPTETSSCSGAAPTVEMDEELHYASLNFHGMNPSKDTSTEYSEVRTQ

| Kd [1] [nM] | Kd [2] [nM] | Binder |
| --- | --- | --- |
| 0.3 | 0.03 | 280-03-08 (antibody, human IgG1, kappa, V domains shown, Fully human monoclonal antibody; also called No 1; Clone ID# 280-03-08) VH: QVQLVQSGAEVKKPGSSVKVSCKASGGTFSDYAISWVRQAPGQGLEWMGRIIPILGVANYAQKFQGRVTITADKSTRTAYMELSSLRSEDTAVYYCARNWADAFDIWGQGTMVTVSS VL: DIQLTQSPSSLSASVGDRVTITCRASQGISSVLAWYQQKPGKAPKLLIYDASSLESGVPSRFSGSGSGTDFTLTISSLQPEDFATYYCQQFNSSITFGQGTKLEIKR |
| 0.3 | 2.1 | 283-07-03 (antibody, human IgG1, kappa, V domains shown, Fully human monoclonal antibody; also called No 12; Clone ID# 283-07-03) VH: QVELVQSGAEVKKPGSSVKVSCKASGGTFSSYAISWVRQAPGQGLEWMGRIIPILGMANYAQKFQGRVTITADKSTYTAYMELSSLRSEDTAVYYCAREGGVDWYFDLWGRGTLVTVSS VL: DIQLTQSPSSLSASVGDRVTITCRASQGISSALAWYQQKPGKAPKFMIYDASSLESGVPSRFSGSGSGTDFTLTISSLQPEDFATYYCQQFNSSITFGQGTKLEIKR |
| 0.4 | 1.7 | 280-50-01(mut) (antibody, human IgG1, kappa, V domains shown, Fully human monoclonal antibody; also called No 8) VH: QVQLVQSGAEVKKPGSSVKVACKASGDTFSSYAISWVRQAPGQGLEWMGRVIPIIGIASYAQNFQGRVTITADRSTSTAYMALSSLRSEDTAVYYCARNWADAFDIWGQGTMVTVSS VL: DIQLTQSPSSLSASVGDRVTITCRASQGISSVLAWYQQKPGKAPKLLIYAASSLESGVPSRFSGSGSGTDFTLTISSLQPEDFATYYCQQFDSSITFGQGTKVEIKR |
| 0.3 | 0.4 | 280-61-07 (antibody, human IgG1, kappa, V domains shown, Fully human monoclonal antibody; also called No 9; Clone ID# 280-61-07) VH: QVQLVQSGAEVKKPGSSVKVACKASGDTFSSYAISWVRQAPGQGLEWMGRVIPIIGIASYAQNFEGRVTITADRSTSTAYMALSSLRSEDTAVYYCARNWADAFDIWGQGTMVTVSS VL: DIQLTQSPSSLSASVGDRVTITCRASQGISSVLAWYQQKPGKAPKLLIYAASSLESGVPSRFSGSGSGTDFTLTISSLQPEDFATYYCQQFNSSITFGQGTKLEIKR |
| 0.3 | 0.5 | 280-34-02 (antibody, human IgG1, kappa, V domains shown, Fully human monoclonal antibody; also called No 6; Clone ID# 280-34-02) VH: QVELVQSGAEVQKPGSSVKVSCKASGDTFSSYAISWVRQAPGQGLEWMGRIIPIVGIVNYAEKFQGRVTITADKSMSTAYMELSSLRSEDTAVYYCARNWADAFDIWGQGTMVTVSS VL: DIQLTQSPSSLSASVGDRVTITCRASQGISSALAWYQQKPGKAPKLLIYDASRLESGVPSRFSGSGSGTDFTLTISSLQPEDFTTYYCQQFNSSYTFGQGTKLEIKR |
| 0.3 | 0.5 | 280-50-01 (antibody, human IgG1, kappa, V domains shown, Fully human monoclonal antibody; also called No 7; Clone ID# 280-50-01) VH: QVQLVQSGAEVKKPGSSVKVACKASGDTFSSYAISWVRQAPGQGLEWMGRVIPIIGIASYAQNFQGRVTITADRSTSTAYMALSSLRSEDTAVYYCARNWADAFDIWGQGTMVTVSS VL: DIQLTQSPSSLSASVGDRVTITCRASQGISSVLAWYQQKPGKAPKLLIYAASSLESGVPSRFSGSGSGTDFTLTISSLQPEDFATYYCQQFNSSITFGQGTKVEIKR |
| – | 1.9 | 283-03-03 (antibody, human IgG1, kappa, V domains shown, Fully human monoclonal antibody; also called No 10; Clone ID# 283-03-03) VH: QVELVQSGAEVKKPGSSVKVSCKASGGTFSSYAISWVRQAPGQGLEWMGRIIPILDMANYAQKFQGRVTITADKSTYTAYMELSSLRSEDTAVYYCAREGGVDWYFDLWGRGTLVTVSS VL: DIQLTQSPSSLSASVGDRVTITCRASQGISSALAWYQQKPGKAPKFMIYDASSLESGVPSRFSGSGSGTDFTLTISSLQPEDFATYYCQQFNSSITFGQGTKLEIKR |
| – | 2.3 | 283-14-01 (antibody, human IgG1, kappa, V domains shown, Fully human monoclonal antibody; also called No 14; Clone ID# 283-14-01) VH: QVQLVQSGAEVKKPGSSVKVSCKASGGTFSSYAISWVRQAPGQGLEWMGRIIPILGIANYAQKFQGRVTITADKSTYTAYMELSSLRSEDTAVYYCAREGGVDWYFDLWGRGTLVTVSS VL: DIQLTQSPSSLSASVGDRVTITCRASQGISSALAWYQQKPGKAPKFMIYDASSLESGVPSRFSGSGSGTDFTLTISSLQPEDFATYYCQQFNSSITFGQGTKLEIKR |
| – | 0.6 | 283-11-03 (antibody, human IgG1, kappa, V domains shown, Fully human monoclonal antibody; also called No 13; Clone ID# 283-11-03) VH: QVQLVQSGAEVKKPGSSMKVSCKASEDTFSSYAISWVRQAPGQGLEWMGRIIPIIGIVNYAQKFQGRVTITADKSTCTAYMELTSLRSEDTAVYYCAREGGVDWYFDLWGRGTLVTVSS VL: DIQLTQSPSSLSASVGDRVTITCRASQGISSALAWYQQKPGKAPKFMIYDASSLESGVPSRFSGSGSGTDFTLTISSLQPEDFATYYCQQFNSSITFGQGTKLEIKR |
| – | 1.1 | 283-05-01 (antibody, human IgG1, kappa, V domains shown, Fully human monoclonal antibody; also called No 11; Clone ID# 283-05-01) VH: QVELVQSGAEVKKPGSSVKVSCKASEDTFSSYAISWVRQAPGQGLEWMGRIIPIIGIVNYAQKFQGRVTITADKSTYTAYMELSSLRSEDTAVYYCAREGGVDWYFDLWGRGTLVTVSS VL: DIQLTQSPSSLSASVGDRVTITCRASQGISSALAWYQQKPGKAPKFMIYDASSLESGVPSRFSGSGSGTDFTLTISSLQPEDFATYYCQQFNSSITFGQGTKLEIKR |
| – | 0.5 | 280-31-01(mut) (antibody, human IgG1, kappa, V domains shown, Fully human monoclonal antibody; also called No 5) VH: QVQLVQSGAEVKKPGSSVKVSCKASGGTFSDYAISWVRQAPGQGLEWMGRIIPILGVADYAQKFQGRVTITADKSTRTAYMELSSLRSEDTAVYYCARNWADAFDIWGQGTMVTVSS VL: DIQLTQSPSSLSASVGDRVTITCRASQGISSVLAWYQQKPGKAPKLLIYDASSLESGVPSRFSGSGSGTDFTLTISSLQPEDFATYYCQQFDSSITFGQGTKLEIKR |
| – | 0.6 | 280-29-12 (antibody, human IgG1, kappa, V domains shown, Fully human monoclonal antibody; also called No 3; Clone ID# 280-29-12) VH: QVQLVQSGTEVKKPGSSVKVSCKVSGDTFSSYAISWVRQAPGQGLEWMGRIIPIIGIANYAQKFQGRVTITADKSTSTAYMELSSLRSEDTAVYYCARHWLDAFDIWGQGTMVTVSS VL: DIQLTQSPSSLSASVGDRVTITCRASQGISSALAWSQQKPGKAPKLLIYDASSLESGVPSRFSGSGSGTDFTLTISSLQPEDFATYYCQQFNSSITFGQGTKLEIKR |
| – | 0.3 | 280-31-01 (antibody, human IgG1, kappa, V domains shown, Fully human monoclonal antibody; also called No 4; Clone ID# 280-31-01) VH: QVQLVQSGAEVKKPGSSVKVSCKASGGTFSDYAISWVRQAPGQGLEWMGRIIPILGVADYAQKFQGRVTITADKSTRTAYMELSSLRSEDTAVYYCARNWADAFDIWGQGTMVTVSS VL: DIQLTQSPSSLSASVGDRVTITCRASQGISSVLAWYQQKPGKAPKLLIYDASSLESGVPSRFSGSGSGTDFTLTISSLQPEDFATYYCQQFNSSITFGQGTKLEIKR |
| – | 0.3 | 280-21-09 (antibody, human IgG1, kappa, V domains shown, Fully human monoclonal antibody; also called No 2; Clone ID# 280-21-09) VH: QVQLVQSGAEVKKPGSSVKVSCKASGDTFSSYAISWVRQAPGQGLEWMGRIIPIINIASYAQNFQGRVTITADKSTNTAYMELSSLRSEDTAVYYCARNWADAFDIWGQGTMVTVSS VL: DIQLTQSPSSLSASVGDRVTITCRASQGISSALAWYQQKPGKAPKLLIYDASSLESGVPSRFSGSGSGTDFTLTISSLQPEDFATYYCQQFNSSITFGQGTKLEIKR |
